According to PMC7955952:

Substrate: Nc1ncnc2c1ncn2[C@@H]1O[C@H](COP(=O)(O)OP(=O)(O)OP(=O)(O)O)[C@@H](O)[C@H]1O
Test: Michaelis–Menten saturation kinetics
Type: biochemical, Homo sapiens
Settings: Mn2+ ATP-binding pocket

B1: Focal adhesion kinase (FAK) (Homo sapiens) (protein)
chain: ETDDYAEIIDEEDTYTMPSTRDYEIQRERIELGRCIGEGQFGDVHQGIYMSPENPALAVAIKTCKNCTSDSVREKFLQEALTMRQFDHPHIVKLIGVITENPVWIIMELCTLGELRSFLQVRKYSLDLASLILYAYQLSTALAYLESKRFVHRDIAARNVLVSSNDCVKLGDFGLSRYMEDSTYYKASKGKLPIKWMAPESINFRRFTSASDVWMFGVCMWEILMHGVKPFQGVKNNDVIGRIENGERLPMPPNCPPTLYSLMTKCWAYDPSRRPRFTELKAQLSTILEEEKAQQEERMRMESRRQ
With B1 the Km was 6.4 ± 1.2 µM.
